Holding throughout (assay): cell-based or functional assay
For assay [1], the target named is cynomolgus monkey FGFR1c/βKlotho receptor (cynomolgus monkey).
Assay [2] concerns the target human FGFR1c/βKlotho receptor (human) (UniProt P11362).
Assay [3] has as its target human FGFR2c/βKlotho receptor (human) (UniProt P21802).
The target in assay [4] is human FGFR3c/βKlotho receptor (human) (UniProt P22607).
The target in assay [5] is human FGFR4/βKlotho receptor (human) (UniProt P22455).

In patent US20250066509A1 one finds EC50, luciferase reporter-based assay (receptor activation) data, which are given here for 1 substance.

human FGFR3c/βKlotho receptor (human), sequence (P22607 23-806, chain 1 of 2): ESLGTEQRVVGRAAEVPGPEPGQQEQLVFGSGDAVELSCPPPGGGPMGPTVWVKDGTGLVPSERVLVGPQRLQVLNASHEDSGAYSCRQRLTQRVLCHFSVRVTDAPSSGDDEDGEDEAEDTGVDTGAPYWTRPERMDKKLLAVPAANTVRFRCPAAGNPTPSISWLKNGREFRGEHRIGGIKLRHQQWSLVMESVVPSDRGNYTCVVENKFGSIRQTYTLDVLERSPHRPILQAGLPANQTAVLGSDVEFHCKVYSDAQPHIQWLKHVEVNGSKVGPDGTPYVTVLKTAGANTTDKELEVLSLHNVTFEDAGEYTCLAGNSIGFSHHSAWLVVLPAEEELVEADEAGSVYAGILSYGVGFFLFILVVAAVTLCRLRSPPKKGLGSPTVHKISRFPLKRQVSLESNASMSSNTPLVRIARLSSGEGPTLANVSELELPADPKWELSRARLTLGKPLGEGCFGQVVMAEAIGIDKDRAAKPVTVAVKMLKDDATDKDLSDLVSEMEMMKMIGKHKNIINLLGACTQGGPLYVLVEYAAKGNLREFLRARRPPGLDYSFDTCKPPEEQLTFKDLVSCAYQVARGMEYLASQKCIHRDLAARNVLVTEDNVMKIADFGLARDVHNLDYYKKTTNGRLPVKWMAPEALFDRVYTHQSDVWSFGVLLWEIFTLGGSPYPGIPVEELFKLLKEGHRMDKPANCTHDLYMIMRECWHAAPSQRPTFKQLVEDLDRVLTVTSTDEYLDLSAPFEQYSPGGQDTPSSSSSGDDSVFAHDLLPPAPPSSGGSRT
human FGFR3c/βKlotho receptor (human), sequence (chain, as listed by the source, chain 2 of 2): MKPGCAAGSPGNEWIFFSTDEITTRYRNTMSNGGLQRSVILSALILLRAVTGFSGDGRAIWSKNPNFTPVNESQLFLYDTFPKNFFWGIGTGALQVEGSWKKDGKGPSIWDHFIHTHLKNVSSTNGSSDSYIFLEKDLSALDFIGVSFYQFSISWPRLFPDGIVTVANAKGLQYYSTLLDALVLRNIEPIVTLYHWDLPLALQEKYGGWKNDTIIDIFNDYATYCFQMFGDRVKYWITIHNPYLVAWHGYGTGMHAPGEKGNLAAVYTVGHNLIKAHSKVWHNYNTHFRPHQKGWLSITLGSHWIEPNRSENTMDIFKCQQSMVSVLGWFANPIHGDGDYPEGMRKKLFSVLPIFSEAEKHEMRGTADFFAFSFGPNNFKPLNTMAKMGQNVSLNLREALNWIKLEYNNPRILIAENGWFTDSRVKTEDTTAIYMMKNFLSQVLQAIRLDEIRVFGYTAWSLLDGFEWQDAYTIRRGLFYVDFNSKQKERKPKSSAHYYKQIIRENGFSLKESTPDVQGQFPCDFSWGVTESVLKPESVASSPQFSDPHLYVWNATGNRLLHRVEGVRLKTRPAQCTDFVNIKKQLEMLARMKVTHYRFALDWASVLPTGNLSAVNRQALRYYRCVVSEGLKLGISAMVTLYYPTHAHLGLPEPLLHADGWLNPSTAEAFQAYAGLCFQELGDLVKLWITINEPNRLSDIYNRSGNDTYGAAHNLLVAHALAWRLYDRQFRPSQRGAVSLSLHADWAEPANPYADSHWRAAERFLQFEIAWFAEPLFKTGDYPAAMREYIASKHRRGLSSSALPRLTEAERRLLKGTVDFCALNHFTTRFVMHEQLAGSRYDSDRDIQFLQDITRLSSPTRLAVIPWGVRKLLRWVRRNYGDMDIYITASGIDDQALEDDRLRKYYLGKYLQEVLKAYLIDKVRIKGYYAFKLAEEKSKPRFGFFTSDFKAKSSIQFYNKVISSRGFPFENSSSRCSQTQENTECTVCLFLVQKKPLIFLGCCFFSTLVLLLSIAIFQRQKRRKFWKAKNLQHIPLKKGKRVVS
human FGFR1c/βKlotho receptor (human), sequence (P11362 22-822, chain 1 of 2): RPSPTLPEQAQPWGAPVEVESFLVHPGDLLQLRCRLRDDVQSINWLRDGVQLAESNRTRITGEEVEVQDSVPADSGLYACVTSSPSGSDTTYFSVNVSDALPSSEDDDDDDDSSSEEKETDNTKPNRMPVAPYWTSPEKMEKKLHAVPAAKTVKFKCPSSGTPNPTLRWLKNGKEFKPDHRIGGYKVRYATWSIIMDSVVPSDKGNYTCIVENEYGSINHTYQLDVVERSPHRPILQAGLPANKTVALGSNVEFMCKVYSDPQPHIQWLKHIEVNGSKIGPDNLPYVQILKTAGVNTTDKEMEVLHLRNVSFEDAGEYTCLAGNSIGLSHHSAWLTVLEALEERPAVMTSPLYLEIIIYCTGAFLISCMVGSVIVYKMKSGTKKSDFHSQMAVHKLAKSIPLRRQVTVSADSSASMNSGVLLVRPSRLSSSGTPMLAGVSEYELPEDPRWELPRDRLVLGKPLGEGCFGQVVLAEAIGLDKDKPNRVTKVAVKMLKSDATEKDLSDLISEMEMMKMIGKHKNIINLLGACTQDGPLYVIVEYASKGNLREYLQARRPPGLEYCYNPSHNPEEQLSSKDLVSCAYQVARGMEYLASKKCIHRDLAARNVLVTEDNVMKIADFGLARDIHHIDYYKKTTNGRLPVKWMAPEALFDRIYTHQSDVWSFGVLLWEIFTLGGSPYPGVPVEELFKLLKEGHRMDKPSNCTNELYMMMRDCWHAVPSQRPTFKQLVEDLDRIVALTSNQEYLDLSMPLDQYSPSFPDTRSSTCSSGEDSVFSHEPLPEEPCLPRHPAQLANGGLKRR
human FGFR1c/βKlotho receptor (human), sequence (chain, as listed by the source, chain 2 of 2): as the sequence (chain, as listed by the source, chain 2 of 2) above
human FGFR4/βKlotho receptor (human), sequence (P22455 22-802, chain 1 of 2): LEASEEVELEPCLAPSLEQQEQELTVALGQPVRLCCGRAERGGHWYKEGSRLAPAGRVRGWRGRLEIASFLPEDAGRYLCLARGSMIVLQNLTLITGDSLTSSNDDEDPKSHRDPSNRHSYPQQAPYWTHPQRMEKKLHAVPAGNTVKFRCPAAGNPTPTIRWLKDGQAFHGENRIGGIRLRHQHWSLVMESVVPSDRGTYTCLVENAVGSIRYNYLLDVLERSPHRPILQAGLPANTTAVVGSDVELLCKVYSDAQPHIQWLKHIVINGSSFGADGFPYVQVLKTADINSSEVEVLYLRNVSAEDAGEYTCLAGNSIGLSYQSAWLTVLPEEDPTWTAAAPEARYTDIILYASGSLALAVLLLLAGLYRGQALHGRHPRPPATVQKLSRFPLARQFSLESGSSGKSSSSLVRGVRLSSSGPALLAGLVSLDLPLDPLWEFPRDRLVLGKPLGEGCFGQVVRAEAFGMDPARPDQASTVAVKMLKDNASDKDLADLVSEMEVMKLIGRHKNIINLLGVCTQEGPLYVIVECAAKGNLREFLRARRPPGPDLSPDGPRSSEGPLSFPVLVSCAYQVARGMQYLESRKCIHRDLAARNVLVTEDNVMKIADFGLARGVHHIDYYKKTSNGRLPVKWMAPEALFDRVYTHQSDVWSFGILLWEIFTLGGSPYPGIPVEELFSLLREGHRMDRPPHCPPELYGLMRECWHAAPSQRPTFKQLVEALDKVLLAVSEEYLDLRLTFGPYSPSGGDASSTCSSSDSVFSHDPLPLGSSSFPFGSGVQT
human FGFR4/βKlotho receptor (human), sequence (chain, as listed by the source, chain 2 of 2): as the sequence (chain, as listed by the source, chain 2 of 2) above
human FGFR2c/βKlotho receptor (human), sequence (P21802 22-821, chain 1 of 2): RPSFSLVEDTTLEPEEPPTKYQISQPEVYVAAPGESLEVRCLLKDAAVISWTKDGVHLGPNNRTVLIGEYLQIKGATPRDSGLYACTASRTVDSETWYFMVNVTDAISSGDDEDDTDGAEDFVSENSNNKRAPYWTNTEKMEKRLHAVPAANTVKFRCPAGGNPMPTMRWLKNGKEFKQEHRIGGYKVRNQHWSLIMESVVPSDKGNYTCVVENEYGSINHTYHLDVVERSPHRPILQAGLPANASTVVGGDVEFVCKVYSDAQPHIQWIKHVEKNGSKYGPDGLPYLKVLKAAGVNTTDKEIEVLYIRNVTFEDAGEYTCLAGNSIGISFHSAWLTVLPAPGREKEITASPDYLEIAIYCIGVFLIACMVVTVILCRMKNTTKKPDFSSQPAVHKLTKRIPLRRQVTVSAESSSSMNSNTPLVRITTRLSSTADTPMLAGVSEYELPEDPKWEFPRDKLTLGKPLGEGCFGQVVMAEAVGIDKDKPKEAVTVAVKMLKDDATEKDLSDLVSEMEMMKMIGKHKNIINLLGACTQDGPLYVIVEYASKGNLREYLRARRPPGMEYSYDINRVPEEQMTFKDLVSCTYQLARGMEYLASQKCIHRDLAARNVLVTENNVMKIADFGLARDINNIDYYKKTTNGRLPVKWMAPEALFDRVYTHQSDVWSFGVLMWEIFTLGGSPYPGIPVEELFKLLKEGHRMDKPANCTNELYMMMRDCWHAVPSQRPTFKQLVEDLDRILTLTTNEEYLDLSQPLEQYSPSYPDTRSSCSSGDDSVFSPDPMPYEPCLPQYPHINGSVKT
human FGFR2c/βKlotho receptor (human), sequence (chain, as listed by the source, chain 2 of 2): as the sequence (chain, as listed by the source, chain 2 of 2) above

With “FGF19 (from UniProt O95750 25-216) (ligand)”, the EC50, luciferase reporter-based assay (receptor activation) in assay [1] turned out to be 2230 pM; in assay [2], 410 pM; in assay [3], 270 pM; in assay [4], 300 pM; in assay [5] it was 50 pM.
